Columns and labels:
[1] = plaque size and shape, Vero cells; conditions: glycan lost; control: WTrIBV
[2] = growth curve, TCID50, Vero cells; conditions: glycan lost; control: WTrIBV
[3] = indirect immunofluorescence, infected Vero cells; conditions: glycan lost; control: WTrIBV
[4] = RT-qPCR of IBV gRNA and sgRNA2; conditions: glycan lost; control: WTrIBV
[5] = 20-60% sucrose gradient ultracentrifugation, anti-M blot; conditions: glycan lost; control: WTrIBV
[6] = co-expression with E in COS-7, pelleted VLP blot; conditions: glycan lost; control: MWT

B1: IBV M protein (membrane protein): rN3D/N6D (protein)
parent chain: MPNETNCTLDFEQSVQLFKEYNLFITAFLLFLTIILQYGYATRSKVIYTLKMIVLWCFWPLNIAVGVISCTYPPNTGGLVAAIILTVFACLSFVGYWIQSIRLFKRCRSWWSFNPESNAVGSILLTNGQQCNFAIESVPMVLSPIIKNGVLYCEGQWLAKCEPDHLPKDIFVCTPDRRNIYRMVQKYTGDQSGNKKRFATFVYAKQSVDTGELESVATGGSSLYT
no change: other: viral replication [1] | other: viral replication [2] | localisation_or_trafficking [3] | other: viral replication [4] | other: virion sedimentation [5]

B2: IBV M protein (membrane protein): MN3D/N6D (protein)
parent chain: MPNETNCTLDFEQSVQLFKEYNLFITAFLLFLTIILQYGYATRSKVIYTLKMIVLWCFWPLNIAVGVISCTYPPNTGGLVAAIILTVFACLSFVGYWIQSIRLFKRCRSWWSFNPESNAVGSILLTNGQQCNFAIESVPMVLSPIIKNGVLYCEGQWLAKCEPDHLPKDIFVCTPDRRNIYRMVQKYTGDQSGNKKRFATFVYAKQSVDTGELESVATGGSSLYT
no change: other: VLP formation [6]
